# Laboratory results: patent US20180311326A1 (FRAUNHOFER GESELLSCHAFT ZUR FOERDERUNG DER ANGEWANDTEN …, published 2018)
# B1: MSP119_3D7-HC1.2-ER (Fc fusion)
# chain: ISQHQCVKKQCPENSGCFRHLDEREECKCLLNYKQEGDKCVENPNPTCNENNGGCDADATCTEEDSGSSRKKITCECTKPDSYPLFDGIFCSSSNAAAKGPSVFPLAPSSKSTSGGTAALGCLVKDYFPEPVTVSWNSGALTSGVHTFPAVLQSSGLYSLSSVVTVPSSSLGTQTYICNVNHKPSNTKVDKKVEPKSCDKTHTCPPCPAPELLGGPSVFLFPPKPKDTLMISRTPEVTCVVVDVSHEDPEVKFNWYVDGVEVHNAKTKPREEQYNSTYRVVSVLTVLHQDWLNGKEYKCKVSNKAFPAPIEKTISKAKGQPREPQVYTLPPSRDKLTKNQVSLTCLVKGFYPSDIAVEWESNGQPENNYKTTPPVLKSDGSFFLYSKLTVDKSRWQQGNVFSCSVMHEALHNHYTQKSLSLSPGKSEKDEL
# notes: PfMSP119 (3D7) fused to human IgG1 constant region with E356K and D399K already in the entry; also called MSP119-modHC1_E356K-D399K; PfMSP119_3D7-HC1.2-ER
# Molecular target: T1, AMA1_GKO-HC2.2
# T1 construct: PfAMA1_GKO fused to human IgG1 constant region with K392D and K409D already in the entry; also called AMA1GKO-modHC2_K392D-K409D; PfAMA1_GKO-HC2.2-ER
# Test: co-expression in N. benthamiana, SDS-PAGE under reducing and non-reducing conditions
binder,measurement,value
B1,binding result,binds
